Where two headings read alike, the source gives them in different places. Where no end group is shown, it is not given here.
Assays:
HMGB1 [1] = molecular target: T1, HMGB1 (Homo sapiens, UniProt P09429); assay: Binding affinity to HMGB1 by microscale thermophoresis (MST); conditions: for Kd (μM), equilibrium dissociation constant: MST, Example 6 (Table 4), highest peptide concentration 500 μM
T1 sequence (P09429 1-215): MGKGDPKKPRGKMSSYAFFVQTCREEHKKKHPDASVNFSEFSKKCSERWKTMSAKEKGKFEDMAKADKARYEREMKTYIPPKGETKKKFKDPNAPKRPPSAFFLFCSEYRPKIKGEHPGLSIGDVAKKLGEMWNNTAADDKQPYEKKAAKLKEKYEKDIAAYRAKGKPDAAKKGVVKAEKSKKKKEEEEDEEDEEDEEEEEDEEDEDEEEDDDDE
Experimental: The protein and the peptide were incubated for 15 minutes at room temperature, to allow binding. MST analysis was performed using premium-coated capillary tubes on a NanoTemper® instrument using the following experimental settings: LED power of 5% (for fluorescence excitation), and laser power 40% (to create temperature gradient). Kd values were calculate from compound concentration-dependent changes in normalized fluorescence (Fnorm). Independent experiments were performed to calculate the Kd value. Data were analyzed by the NanoTemper® analysis software.
MST analysis was performed using premium-coated capillary tubes on a NanoTemper instrument using the following experimental settings: LED power of 5% (for fluorescence excitation), and laser power 40% (to create temperature gradient). Kd values were calculated from compound concentration-dependent changes in normalized fluorescence (Fnorm). Independent experiments were performed to calculate the Kd value. Data were analyzed by the NanoTemper analysis software.

HMGB1 [2] = molecular target: T1, HMGB1; conditions: literature value (Mollica et al. 2007); read-out: Kd reported for glycyrrhizin; cited from earlier work
[3] = molecular target: T2, CXCL12/HMGB1 heterocomplex (Homo sapiens, UniProt P09429); assay: In vitro chemotaxis (Boyden chamber): CXCL12/HMGB1-induced migration of 300.19 PreB cells expressing human CXCR4; format: cell-based, murine; conditions: peptides at 100 μM; CXCL12 1 nM, HMGB1 300 nM; compared with glycyrrhizin 200 μM; 300.19 PreB cells with human CXCR4
T2 sequence (P09429 1-215): T1 sequence (P09429 1-215)
Experimental: The 13 identified and synthesized peptides were tested in in vitro chemotaxis, to assess their efficacy as inhibitors of the CXCL12/HMGB1-induced migration, on a murine cell line expressing the human CXCR4.
All peptides, at 100 μM, were incubated with CXCL12 and HMGB1 before assessing chemotaxis, to evaluate their ability to interfere with the heterocomplex formation, and inhibit the synergistic effect of HMGB1.

CXCL12 = CXCL12 (Homo sapiens, UniProt P48061); assay: In vitro chemotaxis: migration induced by CXCL12 alone, 300.19 PreB cells expressing human CXCR4; format: cell-based, murine; conditions: peptides at 100 μM; CXCL12 1 nM; 300.19 PreB cells with human CXCR4
Sequence of CXCL12 (P48061 22-93, species assumed): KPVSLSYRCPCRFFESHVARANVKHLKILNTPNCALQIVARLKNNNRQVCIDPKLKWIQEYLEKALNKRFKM
Experimental: Further experiments were performed with CXCL12 alone to identify peptides affecting cell migration induced by CXCL12 alone.
Briefly, chemotaxis was performed using Boyden chambers with 5 μm pore membranes. […] 200 μM glycyrrhizin were used as positive control.

Solubility in PBS = format: physicochemical

Compound	Inhibition of the enhanced migration induced by the CXCL12/HMGB1 heterocomplex [3]	Effect on cell migration induced by CXCL12 alone (CXCL12)	also measured
GYHYE [Pentapept-1]	–	–	Kd (μM), equilibrium dissociation constant (HMGB1 [1]): No binding*; Kd (μM), equilibrium dissociation constant (HMGB1 [1]; listed as pentapept-1): no binding was observed
CC1(C)[C@@H](O[C@H]2O[C@H](C(=O)O)[C@@H](O)[C@H](O)[C@H]2O[C@@H]2O[C@H](C(=O)O)[C@@H](O)[C@H](O)[C@H]2O)CC[C@]2(C)[C@H]3C(=O)C=C4[C@@H]5C[C@@](C)(C(=O)O)CC[C@]5(C)CC[C@@]4(C)[C@]3(C)CC[C@@H]12 [glycyrrhizin]	–	–	Kd (HMGB1 [2]): 125 µM
ERWIH [Pentapept-2, ERWIH]	–	–	Kd (HMGB1 [1]): 200 ± 80 µM
YHICWYGDY (HBP12)	inhibit the enhanced migration induced by the CXCL12/HMGB1 heterocomplex more than glycyrrhizin at 200 μM	inhibit the migration induced by the chemokine alone	–
WISNWILMW (HBP05)	inhibit the enhanced migration induced by the CXCL12/HMGB1 heterocomplex more than glycyrrhizin at 200 μM	inhibit the migration induced by the chemokine alone	–
HWTLANWCR (HBP07)	inhibit the enhanced migration induced by the CXCL12/HMGB1 heterocomplex more than glycyrrhizin at 200 μM	do not affect CXCL12-induced cell migration	–
GYHYEAWIH [HBP08-A6]	–	–	Solubility (Solubility in PBS): poorly soluble
